Target: Insulin from bovine pancreas, P01317
Sequence (P01317 85-105, chain 1 of 2): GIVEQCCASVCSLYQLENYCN
Sequence (P01317 25-54, chain 2 of 2): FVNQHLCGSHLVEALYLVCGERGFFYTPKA

B1: Protein disulfide isomerase from Thermoascus crustaceus (SEQ ID NO: 1) (protein)
chain: ADAESDVRSLKKDTFDDFIKEHDLVLAEFFAPWCGHCQALAPEYEAAASELKEKNIPLAKVDCTEEADLCKEHGVEGYPTLKVFRGLDSVKPYPGARKSAAIVSYMVKQSLPAVSTVTKENLEEFKTMDKVVIIGYIAPDDKTSNETFTAFADSKRDDYLFAATNDAALAKAEGVKQPSIVLYKDFDEKKDVFDGKFDQETMLSWVKTASTPLVGEIGPETYAGYMSAGIPLAFIFAETPEERQKLAADFKPIAEKHRGAINIVTIDAKAFGAYAGNLNLDPQKFPCFAIHDTVKNAKFPYDQSKEVNAKDIGQFVQEVLDGKVEPSIKSEPIPETQEGSVTVVVAHSYRELVIDNDKDVLLEFYAPWCGHCKALAPKYEELGRLYAENPDLASKVTVAKIDATANDVPDEIQGFPTIKLFPAGAKDSPVDYAGSRTVEDLANFIKENGKHKVDALSAATAKPEQGGDVTSTPSISSETTAETAAPTTDGSEHDEL
Insulin reduction assay with DTT, MALDI MS (worded result): in the presence of the PDI, a significant amount of the cystines are reduced resulting in separation of the insulin into the A peptide and B peptide | Insulin reduction assay with sulfite, MALDI MS (worded result): in the presence of the PDI, a significant amount of the cystines are reduced resulting in separation of the insulin into the A peptide and B peptide | Ratio (A chain): mass peak area of A peptide chain to intact insulin, MALDI MS; 2.5 µg/mL PDI, 0 mM DTT: 0.006 | Ratio (A chain): mass peak area of A peptide chain to intact insulin, MALDI MS; 2.5 µg/mL PDI, 0 mM sulfite: 0.009 | Ratio (A chain): mass peak area of A peptide chain to intact insulin, MALDI MS; 2.5 µg/mL PDI, 2 mM DTT: 0.035 | Ratio (A chain): mass peak area of A peptide chain to intact insulin, MALDI MS; 2.5 µg/mL PDI, 2.9 mM sulfite: 0.027 | Ratio (A chain): mass peak area of A peptide chain to intact insulin, MALDI MS; 5 µg/mL PDI, 0 mM DTT: 0.005 | Ratio (A chain): mass peak area of A peptide chain to intact insulin, MALDI MS; 5 µg/mL PDI, 0 mM sulfite: 0.007 | Ratio (A chain): mass peak area of A peptide chain to intact insulin, MALDI MS; 5 µg/mL PDI, 2 mM DTT: 0.07 | Ratio (A chain): mass peak area of A peptide chain to intact insulin, MALDI MS; 5 µg/mL PDI, 2.9 mM sulfite: 0.05 | Ratio (A chain): mass peak area of A peptide chain to intact insulin, MALDI MS; 10 µg/mL PDI, 0 mM DTT: 0.003 | Ratio (A chain): mass peak area of A peptide chain to intact insulin, MALDI MS; 10 µg/mL PDI, 0 mM sulfite: 0.008 | Ratio (A chain): mass peak area of A peptide chain to intact insulin, MALDI MS; 10 µg/mL PDI, 2 mM DTT: 0.172 | Ratio (A chain): mass peak area of A peptide chain to intact insulin, MALDI MS; 10 µg/mL PDI, 2.9 mM sulfite: 0.104 | Ratio (B chain): mass peak area of B peptide chain to intact insulin, MALDI MS; 2.5 µg/mL PDI, 0 mM DTT: 0.01 | Ratio (B chain): mass peak area of B peptide chain to intact insulin, MALDI MS; 2.5 µg/mL PDI, 0 mM sulfite: 0.019 | Ratio (B chain): mass peak area of B peptide chain to intact insulin, MALDI MS; 2.5 µg/mL PDI, 2 mM DTT: 0.109 | Ratio (B chain): mass peak area of B peptide chain to intact insulin, MALDI MS; 2.5 µg/mL PDI, 2.9 mM sulfite: 0.055 | Ratio (B chain): mass peak area of B peptide chain to intact insulin, MALDI MS; 5 µg/mL PDI, 0 mM DTT: 0.009 | Ratio (B chain): mass peak area of B peptide chain to intact insulin, MALDI MS; 5 µg/mL PDI, 0 mM sulfite: 0.018 | Ratio (B chain): mass peak area of B peptide chain to intact insulin, MALDI MS; 5 µg/mL PDI, 2 mM DTT: 0.185 | Ratio (B chain): mass peak area of B peptide chain to intact insulin, MALDI MS; 5 µg/mL PDI, 2.9 mM sulfite: 0.083 | Ratio (B chain): mass peak area of B peptide chain to intact insulin, MALDI MS; 10 µg/mL PDI, 0 mM DTT: 0.007 | Ratio (B chain): mass peak area of B peptide chain to intact insulin, MALDI MS; 10 µg/mL PDI, 0 mM sulfite: 0.017 | Ratio (B chain): mass peak area of B peptide chain to intact insulin, MALDI MS; 10 µg/mL PDI, 2 mM DTT: 0.335 | Ratio (B chain): mass peak area of B peptide chain to intact insulin, MALDI MS; 10 µg/mL PDI, 2.9 mM sulfite: 0.17

Reference: patent US20240307885
